Assay results as given in IntAct's records for PubMed 25278935.

B1: Serine/threonine-protein kinase RsbT (Bacillus subtilis), P42411 (parent)
chain: MNDQSCVRIMTEWDIVAARQLGRNVAKELGFGTVDQARITTAISELARNIYLYAGKGQIGIEQVADRGKKGLKIIAEDQGPGIPDIRKVMEDGFSTSGGLGAGLPGVKRLMDEFSLNSVAGEGTEIQAIKWLR
partner: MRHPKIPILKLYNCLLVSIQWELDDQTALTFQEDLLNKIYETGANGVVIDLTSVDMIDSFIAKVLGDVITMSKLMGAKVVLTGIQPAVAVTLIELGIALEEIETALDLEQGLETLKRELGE
B2: HPr kinase/phosphorylase (Bacillus subtilis), O34483 (parent)
chain: MAKVRTKDVMEQFNLELISGEEGINRPITMSDLSRPGIEIAGYFTYYPRERVQLLGKTELSFFEQLPEEEKKQRMDSLCTDVTPAIILSRDMPIPQELIDASEKNGVPVLRSPLKTTRLSSRLTNFLESRLAPTTAIHGVLVDIYGVGVLITGKSGVGKSETALELVKRGHRLVADDCVEIRQEDQDTLVGNAPELIEHLLEIRGLGIINVMTLFGAGAVRSNKRITIVMNLELWEQGKQYDRLGLEEETMKIIDTEITKLTIPVRPGRNLAVIIEVAAMNFRLKRMGLNAAEQFTNKLADVIEDGEQEE
partner: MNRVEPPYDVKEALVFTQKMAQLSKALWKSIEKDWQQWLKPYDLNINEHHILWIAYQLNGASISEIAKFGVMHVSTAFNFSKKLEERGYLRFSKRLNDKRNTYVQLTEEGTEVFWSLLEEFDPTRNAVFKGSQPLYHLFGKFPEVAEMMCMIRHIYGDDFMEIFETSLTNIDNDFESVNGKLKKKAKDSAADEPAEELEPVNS
B3: Tyrosine-protein kinase YwqD (Bacillus subtilis), P96716 (parent)
chain: MALRKNRGSRMQRNVIAMTEPKSLNSEQYRTIRTNIEFASVDRQMKSVMITSACPGEGKSTTAANLAVVFAQQGKKVLLIDADLRKPTVHTAFFLENTVGLTSVLLKKSSMEQAVQASNEKHLDVLTSGPIPPNPAELLSSKWMKELAYEACAAYDMVIFDTPPILAVADAQILGNVADGSVLVISSGKTEKEQAAKAKEALATCKSKLLGAIMNGKKLSKHSEYGYYGTKDNFMQK
partner: B1 chain
B4: Anti-sigma F factor (Bacillus subtilis), P10728 (parent)
chain: MKNEMHLEFSALSQNESFARVTVASFIAQLDPTMDELTEIKTVVSEAVTNAIIHGYEENCEGKVYISVTLEDHVVYMTIRDEGLGITDLEEARQPLFTTKPELERSGMGFTIMENFMDDVSIDSSPEMGTTIRLTKHLSKSKALCN
partner: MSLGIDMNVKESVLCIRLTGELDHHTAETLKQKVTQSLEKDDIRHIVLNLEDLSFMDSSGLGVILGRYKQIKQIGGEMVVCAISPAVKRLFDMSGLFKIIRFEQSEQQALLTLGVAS

Variants of: B1
Conditions: with rsbs_bacsu rsbS

effect of a mutation on the interaction	Variant
disrupting interaction strength	N49A

Variants of: B2
Conditions: with hpr_bacsu hpr

effect of a mutation on the interaction	Variant
disrupting interaction strength	Q53M

Variants of: B3
Conditions: with rsbt_bacsu rsbT

effect of a mutation on the interaction	Variant
increasing interaction strength	D81A

Variants of: B4
Conditions: with sp2aa_bacsu spoIIAA

effect of a mutation on the interaction	Variant
disrupting interaction strength	N50A
